In patent publication US20150087581A1 (AURIGENE DISCOVERY TECHNOLOGIES, published 2015):
Bridges are numbered along the chain shown (N, C = ends). Where no end group is shown, it is not given here. The star is where a group is joined. Biotin = O=C1N[C@H]2[C@H](CS[C@H]2CCCCC(=O)*)N1; Palmitoyl = CCCCCCCCCCCCCCCC(=O)*; SNTSESF = not defined here; Ahx = NCCCCCC(=O)O

B1: Compound 10 (peptide)
peptide: SNQTDKVLNWYRMLAPKAQIKE-NH2
modifications: not fully specified (residue 6); printed as SNQTDK (SNQTDK) VLNWYRM LAPKAQIKE-NH2

molecular target: hPDL1 expressed on MDA-MB231 cells (human, UniProt Q9NZQ7 19-290); test: cell-based or functional assay
Sequence (Q9NZQ7 19-290): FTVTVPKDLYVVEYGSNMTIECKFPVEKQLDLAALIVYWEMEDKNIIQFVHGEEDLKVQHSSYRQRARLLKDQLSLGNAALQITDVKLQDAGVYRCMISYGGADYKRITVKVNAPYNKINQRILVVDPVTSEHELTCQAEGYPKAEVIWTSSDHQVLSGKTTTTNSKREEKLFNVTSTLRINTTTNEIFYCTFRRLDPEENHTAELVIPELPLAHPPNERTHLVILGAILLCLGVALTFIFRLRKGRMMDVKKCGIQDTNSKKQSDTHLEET

Binder | Percent rescue (100 nM, compared with 100 nM Comp 8) in mouse splenocyte proliferation CFSE based assay
SNTSESFK(SNTSESF)FRVTELAPKAQIKE-NH2 (lactam 13-17; reading uncertain) [Compound 64] | 69.1%
B1 | 10.6%
SNWSEDLK(SNWSEDL)FQIIQLHPK(Palmitoyl)AKIEE-NH2 [Compound 82] | 58.3%
SNWSEDLK(SNWSEDL)FQIIQLHPKAKIEE-NH2 [Compound 69] | 48%
SNTSESFK(SNTSESF)FRVTQLAPEAQIKE-NH2 (lactam 17-21; reading uncertain) [Compound 62] | 37%
FRVTQKFRVTQLAPKAQIKE-NH2 (not fully specified (residue 6)) [Compound 7] | 61.5%
{Biotin-Ahx}-EKIQAKPAYWNLVKDTQNS-NH2 (not fully specified (residue 14)) [Compound 61] | 67%
SNTSESFKFRVTQLAPKAQIKE-NH2 (not fully specified (residue 8)) [Compound 84] | 80.5%
SNQTDKFRVTQLAPKAQIKE-NH2 (not fully specified (residue 6); printed as SNQTDK (SNQTDK) FRVTQ LAPKAQIKE-NH2) [Compound 9] | 11.3%
SNTSESFK(SNTSESF)FKVTQEAPKAQIKE-NH2 (lactam 10-14; reading uncertain) [Compound 63] | 68%
SNWSEDLKFQIIQLHPK(MPA‑NH‑CH2‑CH2‑O‑CH2‑CH2‑O‑CO)AKIEE-NH2 (not fully specified (residue 8)) [Compound 91] | 69.4%

Molecular target: T1, recombinant hPDL-2 overexpressed on HEK 293 cells (human, UniProt Q9BQ51 20-273)
T1 chain: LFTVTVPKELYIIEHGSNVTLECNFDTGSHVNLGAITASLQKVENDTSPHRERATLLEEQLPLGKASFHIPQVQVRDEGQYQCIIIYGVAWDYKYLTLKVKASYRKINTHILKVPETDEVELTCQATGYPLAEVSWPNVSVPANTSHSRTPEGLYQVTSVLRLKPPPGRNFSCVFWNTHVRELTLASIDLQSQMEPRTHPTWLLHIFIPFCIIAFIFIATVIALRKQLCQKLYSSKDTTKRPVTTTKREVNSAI
Test: flow cytometry, inhibition of soluble PD1-Fc binding to hPDL2-expressing HEK293 cells

Binder | EC50
SNTSESFKFRVTQLAPKAQIKE-NH2 (not fully specified (residue 8)) [Compound 8] | 0.722 nM
